Data as given in PMC1931443, “Vertebrate DM domain proteins bind similar DNA sequences and can heterodimerize on DNA” (BMC Molecular Biology, 2007).

Key:
[1] = target: the molecule itself; test: native gel or EMSA; one in vitro translated DMRT protein (4 ul translation mix) with 32P-labelled dsDNA probe bearing the DMRT1 consensus site; monomer and dimer complexes seen on DNA; 10 mM Tris-HCl pH 7.9, 100 mM KCl, 10% glycerol, 5 mM MgCl2, 1 mM spermidine, 0.075% Triton-X-100, 1 mM DTT; on ice 10 min; 5% native gel at 4 C
[2] = target: the molecule itself; test: native gel or EMSA; DMRT1 alone or together with a Myc-tagged DMRT protein (in vitro translated) on labelled DMRT1 consensus probe; composition of the DNA/protein complexes tested by supershift with DMRT1 antibody or anti-Myc 9E10; dimers seen on DNA

B1: DMRT5 (mouse), Myc epitope tagged, in vitro translated (natural protein, UniProt A2A9A2 1-531, looked up)
chain: MELRSELPSVPGAATAAATATGPPVASVASVAAAAAAAASLPVSVAGGLLRAPPLLLRAAEKYPRTPKCARCRNHGVVSALKGHKRYCRWKDCLCAKCTLIAERQRVMAAQVALRRQQAQEENEARELQLLYGTAEGLALAAANGIIPPRPAYEVFGSVCATDGGGPGAGAPAGSAGGAGGAEAKLQKFDLFPKTLLQAGRPDSPQPPPGKPLSPDGADSGPRTSSPEVRPGSGSENGDGESFSGSPLARASKEAGGSCPGSAGAGGGGEEDSPGSSSPLGSESGSEADKEEAEAAPTPGLGGGPGPRQRTPLDILTRVFPGHRRGVLELVLQGCGGDVVQAIEQVLNHHRGGLAAGLGPAAPLEKAAVSAAVEDAWPGRVEAAAAGGAGLPAPLQTGPTAPPHHRPLLAGAMTPGALGSLSSRSAFSPLQPNASHFGADAGAYPLGAPLGLSPLRLAYSAAAAHSRGLAFMAPYSTAGLVPTLGFRPPMDYAFSDLMRDRSAAAAAAVHKEPGYGGGLYGPMVNGTPEKQ
notes: DMRT5, mouse; source: in vitro translated (TNT Quick Coupled transcription/translation system, Promega, with 20 uM ZnSO4), not purified
stoichiometry N [1]: 2

B2: DMRT1 (mouse), full-length, amino-terminal Myc epitope tag, in vitro translated (natural protein)
chain: not shown
notes: DMRT1, mouse, full-length protein made by in vitro transcription/translation; also called in vitro translated DMRT1; source: in vitro translated (TNT Quick Coupled transcription/translation system, Promega, with 20 uM ZnSO4), not purified
stoichiometry N [1]: 2

B3: DMRT1 of the heterodimerization gel shifts (complex not affected by the 9E10 anti-Myc antibody) (natural protein)
chain: not shown
notes: DMRT1, mouse; the construct used in this experiment is not described; The methods describe only a Myc-tagged DMRT1 construct; source: in vitro translated, not purified
stoichiometry N [2]: 2

B4: DMRT3 (mouse), Myc epitope tagged, in vitro translated (natural protein, UniProt Q80WT2 1-476, looked up)
chain: MNGYGSPYLYMGGPVSQPPRAPLQRTPKCARCRNHGVLSWLKGHKRYCRFKDCTCEKCILIIERQRVMAAQVALRRQQANESLESLIPDSLRALPGPPPPGDAAATAATASQSSPASQASQPPAPPRPTAELAAAAALRWVAEPQPGTLPAQLAKPDLTEERVGDSSSTDNTAEAFSDKDTDQRSSPDVVKSKNCFTPESPEIVSVDEGGYAVQKNGGNPESCPDSPKYHAEQSHLLIEGPSGTVSLPFSLKANRPPLEVLKKIFPNQKPTVLELILKGCGGDLVSAVEVLLSSRSSAAGAERTAEESLVLPSSGHIFEHTLGSYPISSSKWSVGSAFRVPDTLRFSADSSNVVPNPLAVPLQHPFPQPPRYPLMLRNTLARNQSSPFLPNDVTLWNTMTLQQQYQLRSQYVSPFPSNSTSVFRSSPVLSSRTTEDPRISIPDDGCPIVTKQSIYTEDDYDERSDSSDSRILNTSS
notes: DMRT3, mouse; also called tagged DMRT3; source: in vitro translated (TNT Quick Coupled transcription/translation system, Promega, with 20 uM ZnSO4), not purified
stoichiometry N [1]: 2
